Assay [1] deals with recombinant human Plexin B1 with a 6X His tag at C-terminus (human) (UniProt O43157). Nature of the assay: ELISA; direct ligand-receptor (LRA) ELISA; Plexin B1 (8-10 ug/mL) immobilised on Immulon 2 plates overnight, Sema4 in solution in varying doses from 2 ug/mL; detection by HRP-labelled Abs to tags; fit 'One site-specific binding with Hill slope'. On the technique in general: ELISA stands for enzyme-linked immunosorbent assay.

In another assay the target is NRP1 (UniProt O14786). Nature of the assay: ELISA; LRA ELISA of Sema4A and NRP1 (Supplemental Figure S2).
Chain of NRP1 (O14786 22-856): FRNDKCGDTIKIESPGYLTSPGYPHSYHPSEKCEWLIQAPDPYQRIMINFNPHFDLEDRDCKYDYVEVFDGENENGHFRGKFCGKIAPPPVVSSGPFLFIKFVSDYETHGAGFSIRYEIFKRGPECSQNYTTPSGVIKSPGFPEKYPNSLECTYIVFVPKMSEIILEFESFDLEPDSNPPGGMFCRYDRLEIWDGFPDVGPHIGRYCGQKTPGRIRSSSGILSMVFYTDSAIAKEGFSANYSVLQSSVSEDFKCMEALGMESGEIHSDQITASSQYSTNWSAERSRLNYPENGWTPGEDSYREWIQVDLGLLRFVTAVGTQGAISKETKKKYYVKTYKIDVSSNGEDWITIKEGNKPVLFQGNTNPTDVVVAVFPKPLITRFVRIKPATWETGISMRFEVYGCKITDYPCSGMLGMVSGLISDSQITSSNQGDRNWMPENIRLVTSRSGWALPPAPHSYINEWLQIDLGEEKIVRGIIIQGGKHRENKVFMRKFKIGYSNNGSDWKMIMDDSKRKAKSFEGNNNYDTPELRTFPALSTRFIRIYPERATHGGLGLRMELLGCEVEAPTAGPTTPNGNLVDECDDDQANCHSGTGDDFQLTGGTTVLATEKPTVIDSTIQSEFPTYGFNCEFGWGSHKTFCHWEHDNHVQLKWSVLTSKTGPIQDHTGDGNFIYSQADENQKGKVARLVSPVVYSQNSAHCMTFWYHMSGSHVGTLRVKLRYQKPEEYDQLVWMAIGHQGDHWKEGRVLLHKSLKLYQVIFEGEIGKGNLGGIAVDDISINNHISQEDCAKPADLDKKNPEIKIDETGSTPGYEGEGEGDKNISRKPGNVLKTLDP
Assay [2] addresses Plexin B1 (Homo sapiens) (UniProt O43157). Nature of the assay: cell-based ELISA. As to conditions: cited from earlier work.
The target is the same in assay [3]. Kind of assay: SPR. As to conditions: cited from earlier work.
For another assay, the target named is Plexin D1 (UniProt Q9Y4D7). Nature of the assay: SPR. The conditions noted are these: cited from earlier work.
Chain of Plexin D1 (Q9Y4D7 47-1271): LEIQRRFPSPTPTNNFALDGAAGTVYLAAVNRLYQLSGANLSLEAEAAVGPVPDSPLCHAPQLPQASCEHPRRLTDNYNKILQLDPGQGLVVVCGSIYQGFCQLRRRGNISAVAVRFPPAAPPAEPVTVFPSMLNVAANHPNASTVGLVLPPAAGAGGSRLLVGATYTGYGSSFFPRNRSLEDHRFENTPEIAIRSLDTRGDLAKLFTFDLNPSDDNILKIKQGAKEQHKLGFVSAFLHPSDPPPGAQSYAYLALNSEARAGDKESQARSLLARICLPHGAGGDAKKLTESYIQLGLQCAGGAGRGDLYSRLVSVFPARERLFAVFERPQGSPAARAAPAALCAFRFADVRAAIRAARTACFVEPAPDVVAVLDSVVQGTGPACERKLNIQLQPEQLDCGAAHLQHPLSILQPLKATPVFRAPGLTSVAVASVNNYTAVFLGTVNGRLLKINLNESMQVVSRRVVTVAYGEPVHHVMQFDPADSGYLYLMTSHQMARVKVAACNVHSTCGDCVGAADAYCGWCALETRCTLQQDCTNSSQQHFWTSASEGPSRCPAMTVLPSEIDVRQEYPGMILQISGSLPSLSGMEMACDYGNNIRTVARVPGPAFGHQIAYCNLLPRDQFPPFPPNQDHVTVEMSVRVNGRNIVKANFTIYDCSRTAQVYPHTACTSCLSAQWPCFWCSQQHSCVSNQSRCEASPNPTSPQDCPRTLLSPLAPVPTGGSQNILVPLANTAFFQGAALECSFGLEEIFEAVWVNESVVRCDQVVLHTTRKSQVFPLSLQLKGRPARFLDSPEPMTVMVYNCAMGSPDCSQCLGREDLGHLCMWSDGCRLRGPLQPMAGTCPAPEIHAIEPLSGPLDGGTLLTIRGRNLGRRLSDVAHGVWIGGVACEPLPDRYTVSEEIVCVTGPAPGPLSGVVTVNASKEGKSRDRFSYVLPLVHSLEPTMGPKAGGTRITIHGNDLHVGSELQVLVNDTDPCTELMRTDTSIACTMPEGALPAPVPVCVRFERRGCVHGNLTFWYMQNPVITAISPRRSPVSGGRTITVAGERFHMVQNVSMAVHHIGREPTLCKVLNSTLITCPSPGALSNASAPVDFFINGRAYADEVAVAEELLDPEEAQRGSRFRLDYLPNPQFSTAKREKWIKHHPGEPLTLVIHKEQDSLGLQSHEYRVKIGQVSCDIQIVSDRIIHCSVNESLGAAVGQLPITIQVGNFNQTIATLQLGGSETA
Assay [4] addresses soluble recombinant human Sema4A (GST- or Fc-tagged, as used in Figures 2 and 3) (human) (UniProt Q9H3S1). Nature of the assay: ELISA; reverse LRA ELISA; Sema4 (2 ug/mL) coated on Immulon 2 plates overnight at 4 C in 0.1 M sodium carbonate-bicarbonate buffer, rhPlexin B1 in solution in varying doses from 10 ug/mL.
Assay [5] addresses T1, recombinant human Plexin B1 with a 6X His tag at C-terminus (human, UniProt O43157 20-1490).
T1 construct: Plexin B1, human; Only the molecular weight (66 kDa) is printed; it must be a fragment of the extracellular part, limits unknown; also called rhPlexin B1; rhPlexin B1-His; source: bought: GenScript; not shown: His6, C-terminal, kept
T1 sequence (looked up): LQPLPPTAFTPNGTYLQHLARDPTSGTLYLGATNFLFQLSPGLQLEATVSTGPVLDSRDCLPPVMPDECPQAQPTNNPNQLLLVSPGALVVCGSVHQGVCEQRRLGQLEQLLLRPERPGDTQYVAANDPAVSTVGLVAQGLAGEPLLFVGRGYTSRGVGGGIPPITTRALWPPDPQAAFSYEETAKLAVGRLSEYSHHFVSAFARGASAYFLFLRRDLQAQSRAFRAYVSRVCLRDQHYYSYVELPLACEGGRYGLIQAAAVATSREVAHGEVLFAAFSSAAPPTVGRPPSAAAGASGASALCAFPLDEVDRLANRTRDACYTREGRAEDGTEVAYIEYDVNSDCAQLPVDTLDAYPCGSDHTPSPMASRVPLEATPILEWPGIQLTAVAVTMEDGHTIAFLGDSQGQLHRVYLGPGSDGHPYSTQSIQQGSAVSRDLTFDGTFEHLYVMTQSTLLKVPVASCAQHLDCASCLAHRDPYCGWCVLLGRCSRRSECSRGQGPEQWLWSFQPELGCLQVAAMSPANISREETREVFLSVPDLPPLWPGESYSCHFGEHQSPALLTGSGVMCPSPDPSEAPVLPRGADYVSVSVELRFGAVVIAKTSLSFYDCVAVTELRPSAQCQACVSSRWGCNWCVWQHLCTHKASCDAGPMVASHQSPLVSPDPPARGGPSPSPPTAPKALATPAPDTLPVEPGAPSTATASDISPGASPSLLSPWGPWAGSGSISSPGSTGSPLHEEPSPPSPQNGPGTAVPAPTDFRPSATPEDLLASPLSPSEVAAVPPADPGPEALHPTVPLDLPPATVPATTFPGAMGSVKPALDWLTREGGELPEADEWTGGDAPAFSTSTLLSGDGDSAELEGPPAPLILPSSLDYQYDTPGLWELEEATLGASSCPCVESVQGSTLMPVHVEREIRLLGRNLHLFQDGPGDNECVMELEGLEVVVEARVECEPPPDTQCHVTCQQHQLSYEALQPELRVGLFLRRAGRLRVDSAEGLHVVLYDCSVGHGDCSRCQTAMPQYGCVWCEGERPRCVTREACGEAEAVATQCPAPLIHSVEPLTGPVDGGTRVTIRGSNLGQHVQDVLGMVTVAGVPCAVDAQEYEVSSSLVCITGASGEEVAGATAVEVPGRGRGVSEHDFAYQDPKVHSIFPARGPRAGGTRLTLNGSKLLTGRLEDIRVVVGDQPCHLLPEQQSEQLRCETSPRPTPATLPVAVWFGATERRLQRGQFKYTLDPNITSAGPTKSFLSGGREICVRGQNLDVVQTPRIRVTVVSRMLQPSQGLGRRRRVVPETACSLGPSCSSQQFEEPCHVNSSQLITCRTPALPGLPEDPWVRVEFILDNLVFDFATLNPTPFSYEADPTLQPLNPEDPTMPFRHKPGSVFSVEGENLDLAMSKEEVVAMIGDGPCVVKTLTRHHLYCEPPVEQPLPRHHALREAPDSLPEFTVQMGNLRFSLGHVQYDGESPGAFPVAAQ
The description is as above. The conditions noted are these: both partners purified.

Assay [6] concerns the target T1, recombinant human Plexin B1 with a 6X …. Kind of assay: ELISA; direct LRA ELISA; Plexin B1-His (10 ug/mL) captured on HIS-Select nickel-coated microplates in Tris buffer overnight, Sema4 in solution in varying doses from 2 ug/mL. As to conditions: both partners purified.

Substitutions are numbered along the chain they refer to. Names may count otherwise.

As to “soluble recombinant human Sema4A (GST- or Fc-tagged, as used in Figures 2 and 3) (from UniProt Q9H3S1 33-683) (ligand)”, the Kd (as a rule, the equilibrium constant for the complex coming apart) in assay [1] was determined as 0.0199 µM; with NRP1 it was 0.0283 µM.
Turning to Sema4D (from UniProt Q92854), the Kd in the assay with Plexin B1 (Homo sapiens) [2] was 0.0009 µM.
As to “Sema4D Sema domain (from UniProt Q92854)”, in the assay with Plexin B1 (Homo sapiens) [3], the Kd is 5500 µM.
Take Sema4A (from UniProt Q9H3S1): the Kd with Plexin D1 is 0.00872 µM.

B1: recombinant human Plexin B1 with a 6X His tag at C-terminus (receptor)
chain: T1 sequence (looked up)
For the molecule B1, the Kd in assay [4] was determined as 0.0354 µM.

B2: WT rhSema4A-Fc (GenScript) (Fc fusion, human, UniProt Q9H3S1 33-683, looked up)
chain: GGGQGPMPRVRYYAGDERRALSFFHQKGLQDFDTLLLSGDGNTLYVGAREAILALDIQDPGVPRLKNMIPWPASDRKKSECAFKKKSNETQCFNFIRVLVSYNVTHLYTCGTFAFSPACTFIELQDSYLLPISEDKVMEGKGQSPFDPAHKHTAVLVDGMLYSGTMNNFLGSEPILMRTLGSQPVLKTDNFLRWLHHDASFVAAIPSTQVVYFFFEETASEFDFFERLHTSRVARVCKNDVGGEKLLQKKWTTFLKAQLLCTQPGQLPFNVIRHAVLLPADSPTAPHIYAVFTSQWQVGGTRSSAVCAFSLLDIERVFKGKYKELNKETSRWTTYRGPETNPRPGSCSVGPSSDKALTFMKDHFLMDEQVVGTPLLVKSGVEYTRLAVETAQGLDGHSHLVMYLGTTTGSLHKAVVSGDSSAHLVEEIQLFPDPEPVRNLQLAPTQGAVFVGFSGGVWRVPRANCSVYESCVDCVLARDPHCAWDPESRTCCLLSAPNLNSWKQDMERGNPEWACASGPMSRSLRPQSRPQIIKEVLAVPNSILELPCPHLSALASYYWSHGPAAVPEASSTVYNGSLLLIVQDGVGGLYQCWATENGFSYPVISYWVDSQDQTLALDPELAGIPREHVKVPLTRVSGGAALAAQQSYWPH
notes: Semaphorin 4A, human; also called WT Sema4A; WT Sema4A-Fc; source: bought: GenScript
B2: the Kd was determined as 0.0025 µM in assay [5] and 0.00255 µM in assay [6].

B3: F223A rhSema4A-Fc (Fc fusion, human, UniProt Q9H3S1 33-683, looked up)
chain: B2 chain with F191A
notes: Semaphorin 4A, human; as the WT Sema4A-Fc of GenScript with F223A; Similar molecular size as the WT Sema4A-Fc protein prepared similarly; also called Sema4A-F223A; Mu F223A Sema4A; source: prepared by GenScript
Consider B3, for which the Kd in assay [5] was determined as 0.0035 µM; in assay [6], 0.00282 µM.

B4: M198A rhSema4A-Fc (Fc fusion, human, UniProt Q9H3S1 33-683, looked up)
chain: B2 chain with M166A
notes: Semaphorin 4A, human; as the WT Sema4A-Fc of GenScript with M198A; Similar molecular size as the WT Sema4A-Fc protein prepared similarly; also called Sema4A-M198A; Mu M198A Sema4A; source: prepared by GenScript
On to B4, for which the Kd came out at 0.0017 µM in assay [5] and 0.00419 µM in assay [6].
